In publication doi:10.1101/2022.12.10.519866 (bioRxiv, 2022):

Experiments:
Test in all cases: cryo-EM structure
[1] = target: 3×FLAG-tagged full-length mouse BIRC6 (mouse) (UniProt O88738)
[2] = target: 3×FLAG-tagged full-length mouse BIRC6 (mouse, UniProt O88738 1-4882)
cryo-EM structure = target: the molecule itself

3×FLAG-tagged full-length mouse BIRC6, sequence (O88738 whole entry): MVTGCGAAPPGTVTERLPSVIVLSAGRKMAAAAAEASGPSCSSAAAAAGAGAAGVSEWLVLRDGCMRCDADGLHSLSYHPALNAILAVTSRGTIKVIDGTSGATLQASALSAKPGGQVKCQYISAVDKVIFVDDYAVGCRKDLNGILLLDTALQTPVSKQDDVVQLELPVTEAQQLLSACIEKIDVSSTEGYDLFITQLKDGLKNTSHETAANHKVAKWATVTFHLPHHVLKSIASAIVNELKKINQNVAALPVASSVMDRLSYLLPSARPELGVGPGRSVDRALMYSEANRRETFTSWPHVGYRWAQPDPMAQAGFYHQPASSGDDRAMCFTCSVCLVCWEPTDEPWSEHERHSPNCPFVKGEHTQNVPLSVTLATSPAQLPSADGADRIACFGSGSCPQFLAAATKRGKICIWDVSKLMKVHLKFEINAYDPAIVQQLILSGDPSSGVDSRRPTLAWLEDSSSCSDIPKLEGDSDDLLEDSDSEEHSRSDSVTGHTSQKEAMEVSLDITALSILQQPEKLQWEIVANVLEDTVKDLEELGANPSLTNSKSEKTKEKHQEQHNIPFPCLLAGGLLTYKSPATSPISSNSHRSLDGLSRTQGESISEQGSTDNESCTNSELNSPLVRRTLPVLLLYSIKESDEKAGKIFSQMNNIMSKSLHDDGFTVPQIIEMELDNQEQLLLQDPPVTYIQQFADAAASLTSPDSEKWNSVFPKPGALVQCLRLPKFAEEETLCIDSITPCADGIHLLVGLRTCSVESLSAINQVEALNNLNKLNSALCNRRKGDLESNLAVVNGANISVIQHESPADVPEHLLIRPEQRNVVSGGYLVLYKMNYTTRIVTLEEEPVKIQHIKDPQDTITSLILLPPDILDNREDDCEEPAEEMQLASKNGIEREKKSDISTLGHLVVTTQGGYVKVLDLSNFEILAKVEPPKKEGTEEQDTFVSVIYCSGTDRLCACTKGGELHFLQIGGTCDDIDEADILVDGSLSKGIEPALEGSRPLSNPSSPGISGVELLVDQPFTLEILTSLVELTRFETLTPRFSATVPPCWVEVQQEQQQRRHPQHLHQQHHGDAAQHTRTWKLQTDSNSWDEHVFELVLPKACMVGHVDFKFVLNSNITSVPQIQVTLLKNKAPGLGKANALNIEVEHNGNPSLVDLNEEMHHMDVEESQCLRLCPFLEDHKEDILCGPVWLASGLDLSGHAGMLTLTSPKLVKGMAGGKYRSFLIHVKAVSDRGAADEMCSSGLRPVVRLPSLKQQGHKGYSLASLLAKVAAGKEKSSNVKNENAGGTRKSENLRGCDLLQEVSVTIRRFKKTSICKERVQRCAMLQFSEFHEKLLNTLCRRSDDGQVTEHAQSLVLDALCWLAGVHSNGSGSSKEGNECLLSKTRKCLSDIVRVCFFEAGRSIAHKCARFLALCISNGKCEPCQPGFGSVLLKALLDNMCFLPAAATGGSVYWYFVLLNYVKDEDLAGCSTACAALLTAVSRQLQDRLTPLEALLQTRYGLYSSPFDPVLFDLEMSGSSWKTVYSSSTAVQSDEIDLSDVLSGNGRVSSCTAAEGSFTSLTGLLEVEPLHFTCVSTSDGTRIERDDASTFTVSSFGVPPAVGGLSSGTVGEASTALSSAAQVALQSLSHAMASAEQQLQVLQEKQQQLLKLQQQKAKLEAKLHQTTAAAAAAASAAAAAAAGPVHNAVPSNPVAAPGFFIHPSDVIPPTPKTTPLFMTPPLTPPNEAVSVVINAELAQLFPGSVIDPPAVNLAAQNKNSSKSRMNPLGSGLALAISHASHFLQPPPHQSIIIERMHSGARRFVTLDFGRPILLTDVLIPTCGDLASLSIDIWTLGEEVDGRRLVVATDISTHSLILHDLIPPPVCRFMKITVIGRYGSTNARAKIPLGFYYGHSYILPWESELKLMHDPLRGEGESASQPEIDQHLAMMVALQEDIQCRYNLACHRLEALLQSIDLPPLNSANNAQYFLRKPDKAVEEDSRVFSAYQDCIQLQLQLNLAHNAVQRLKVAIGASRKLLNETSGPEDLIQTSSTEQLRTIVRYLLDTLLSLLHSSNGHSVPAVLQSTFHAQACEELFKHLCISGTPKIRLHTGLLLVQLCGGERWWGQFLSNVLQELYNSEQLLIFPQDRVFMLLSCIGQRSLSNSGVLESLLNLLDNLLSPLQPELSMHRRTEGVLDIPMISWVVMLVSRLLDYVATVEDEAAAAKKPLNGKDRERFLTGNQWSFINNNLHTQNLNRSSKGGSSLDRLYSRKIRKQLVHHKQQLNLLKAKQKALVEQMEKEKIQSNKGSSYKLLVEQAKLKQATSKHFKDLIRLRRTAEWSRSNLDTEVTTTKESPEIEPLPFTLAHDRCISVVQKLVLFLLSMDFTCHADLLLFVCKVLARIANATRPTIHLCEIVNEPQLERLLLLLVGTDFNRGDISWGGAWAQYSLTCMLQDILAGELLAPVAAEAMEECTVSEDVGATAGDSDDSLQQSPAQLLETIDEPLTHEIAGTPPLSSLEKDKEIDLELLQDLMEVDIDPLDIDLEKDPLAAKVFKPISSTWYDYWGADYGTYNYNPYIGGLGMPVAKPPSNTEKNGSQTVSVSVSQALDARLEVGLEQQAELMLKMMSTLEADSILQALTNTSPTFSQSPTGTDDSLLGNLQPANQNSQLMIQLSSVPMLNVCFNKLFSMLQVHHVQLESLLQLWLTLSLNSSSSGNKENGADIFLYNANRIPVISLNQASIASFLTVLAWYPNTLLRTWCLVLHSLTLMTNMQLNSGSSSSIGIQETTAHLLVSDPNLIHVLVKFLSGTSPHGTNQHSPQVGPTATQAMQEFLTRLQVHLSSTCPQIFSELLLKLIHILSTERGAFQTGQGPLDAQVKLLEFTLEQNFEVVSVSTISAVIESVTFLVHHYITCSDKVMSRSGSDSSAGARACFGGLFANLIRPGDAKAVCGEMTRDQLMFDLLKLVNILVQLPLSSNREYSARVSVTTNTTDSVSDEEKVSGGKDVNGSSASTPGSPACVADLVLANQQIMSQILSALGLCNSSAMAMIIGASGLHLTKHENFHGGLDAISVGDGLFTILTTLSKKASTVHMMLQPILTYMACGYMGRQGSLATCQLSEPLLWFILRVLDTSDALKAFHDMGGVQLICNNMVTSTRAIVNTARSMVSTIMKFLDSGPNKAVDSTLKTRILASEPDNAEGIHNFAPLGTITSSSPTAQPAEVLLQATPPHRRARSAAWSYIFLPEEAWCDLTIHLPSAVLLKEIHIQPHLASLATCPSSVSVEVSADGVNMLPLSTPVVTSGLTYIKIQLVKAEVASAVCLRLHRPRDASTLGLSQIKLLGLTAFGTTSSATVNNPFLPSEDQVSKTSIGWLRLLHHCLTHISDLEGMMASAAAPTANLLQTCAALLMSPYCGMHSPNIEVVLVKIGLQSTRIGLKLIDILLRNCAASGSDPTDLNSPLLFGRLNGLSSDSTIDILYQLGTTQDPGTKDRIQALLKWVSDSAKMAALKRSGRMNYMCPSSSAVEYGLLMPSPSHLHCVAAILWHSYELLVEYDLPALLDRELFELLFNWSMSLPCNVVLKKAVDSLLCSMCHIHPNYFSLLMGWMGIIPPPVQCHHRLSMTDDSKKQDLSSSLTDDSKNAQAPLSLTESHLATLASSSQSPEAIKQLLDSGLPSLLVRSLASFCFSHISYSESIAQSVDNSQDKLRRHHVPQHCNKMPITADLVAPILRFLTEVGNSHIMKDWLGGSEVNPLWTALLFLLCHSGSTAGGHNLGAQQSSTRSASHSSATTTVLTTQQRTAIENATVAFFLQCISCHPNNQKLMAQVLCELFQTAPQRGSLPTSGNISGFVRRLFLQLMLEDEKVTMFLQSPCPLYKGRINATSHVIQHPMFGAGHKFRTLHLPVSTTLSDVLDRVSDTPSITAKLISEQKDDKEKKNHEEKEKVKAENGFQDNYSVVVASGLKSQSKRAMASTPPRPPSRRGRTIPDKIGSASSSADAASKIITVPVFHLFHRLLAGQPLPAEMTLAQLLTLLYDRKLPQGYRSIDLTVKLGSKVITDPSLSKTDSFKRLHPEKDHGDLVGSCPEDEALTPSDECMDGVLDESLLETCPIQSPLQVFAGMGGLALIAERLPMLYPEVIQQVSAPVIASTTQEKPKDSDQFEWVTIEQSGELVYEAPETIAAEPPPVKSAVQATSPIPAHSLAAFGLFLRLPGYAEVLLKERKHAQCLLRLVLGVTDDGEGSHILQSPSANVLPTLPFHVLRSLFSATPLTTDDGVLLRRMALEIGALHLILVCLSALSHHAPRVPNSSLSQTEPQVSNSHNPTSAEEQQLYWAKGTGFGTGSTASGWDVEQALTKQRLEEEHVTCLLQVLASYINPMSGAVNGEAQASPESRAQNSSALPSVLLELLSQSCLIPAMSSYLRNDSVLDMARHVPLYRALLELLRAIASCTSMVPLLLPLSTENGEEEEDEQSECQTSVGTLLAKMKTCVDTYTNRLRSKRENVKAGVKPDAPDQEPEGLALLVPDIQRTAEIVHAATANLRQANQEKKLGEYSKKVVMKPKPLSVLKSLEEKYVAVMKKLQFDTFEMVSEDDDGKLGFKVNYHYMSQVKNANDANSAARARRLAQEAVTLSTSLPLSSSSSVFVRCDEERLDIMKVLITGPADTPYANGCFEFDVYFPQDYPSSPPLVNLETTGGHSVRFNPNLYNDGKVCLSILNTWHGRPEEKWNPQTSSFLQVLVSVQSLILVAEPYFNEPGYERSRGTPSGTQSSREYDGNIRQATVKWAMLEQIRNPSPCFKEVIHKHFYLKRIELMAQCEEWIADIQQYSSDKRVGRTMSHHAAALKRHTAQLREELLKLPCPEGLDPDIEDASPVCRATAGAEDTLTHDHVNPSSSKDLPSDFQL

stoichiometry N [1]	binding result [2]	Molecule	stoichiometry N (cryo-EM structure)
2		3×FLAG-tagged full-length mouse BIRC6, O88738 1-4882	
	binds	Smac/DIABLO, endogenous, co-purified with FLAG-BIRC6 from HEK293F cells (natural protein) AVPIAQKSEPHSLSSEALMRRAVSLVTDSTSTFLSQTTYALIEAITEYTKAVYTLTSLYRQYTSLLGKMNSEEEDEVWQVIIGARAEMTSKHQEYLKLETTWMTAVGLSEMAAEAAYQTGADQASITARNHIQLVKLQVEEVHQLSRKAETKLAEAQIEELRQKTQEEGEERAESEQEAYLRED	2
